According to patent US20230050972A1 (MOMENTA PHARMACEUTICALS, published 2023):
Where “and” joins values, the source holds several entries; their conditions need not be identical. Equal entries are not always repeated.

T1: in-house generated I domain of α11β1 (human, UniProt Q9UKX5 159-349, limits assumed)
T1 construct: domain: I domain; also called human α11β1 I domain; α11β1 I Domain
T1 sequence (looked up): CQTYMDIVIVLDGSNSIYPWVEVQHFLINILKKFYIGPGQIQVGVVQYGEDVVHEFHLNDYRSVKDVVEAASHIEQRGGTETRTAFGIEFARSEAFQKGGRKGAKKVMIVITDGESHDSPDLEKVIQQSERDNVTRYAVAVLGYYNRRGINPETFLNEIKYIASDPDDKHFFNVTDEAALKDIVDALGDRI


Columns and labels:
[1] = biological target: T2, α11β1 on human myofibroblasts (MF) (human, UniProt Q9UKX5 23-1188; P05556 21-798); experiment: FACS titration on human myofibroblasts
T2 construct: whole, on cells
Method: Human Pulmonary Fibroblasts (ScienCell) were cultured in complete Fibroblast Growth Medium (ScienCell) until 80% confluent in T-150 flasks. Cells were washed and harvested using Accutase. Cells were seeded into T-150 flasks at 7,500 cells/cm² in complete FGF and cultured for 72 hours. Cells were then washed and starved in serum reduced medium for 24 hours. After starvation, cells were treated with TGFβ-1 (R&D Systems) for 72 hours. Cells were harvested using Accutase and seeded in 96-well conical bottom plates. Cells were blocked with Heat Inactived Fetal Bovine Serum (Gibco) for 30 minutes at 4° C. Cells were then incubated with anti-α11 antibodies at the doses described in each figure for 30 minutes at 4° C. A human anti-α11 antibody (Creative BioLabs) was included as a positive control as well as the appropriate IgG isotype negative controls. Cells were washed twice and incubated with PE conjugated secondary antibodies specific to the IgG class of the anti-α11 antibodies being tested for 30 minutes at 4° C. Cells were washed twice and fixed in 1% PFA for 30 minutes. Cells were acquired on a FACS Verse […]. Data were analyzed by gating on single cells and determining the geometric Mean Fluorescence Intensity (gMFI) in the PE channel for each sample.

[2] = biological target: T3, recombinant human α11β1 (human, UniProt Q9UKX5 23-1141; P05556 21-728); experiment: SPR (Biacore T200), HIS-tagged human α11β1 captured on anti-HIS, single-cycle kinetics, 1:1 Langmuir fit
T3 construct: Coated in ELISA; ELISA and SPR material treated as one molecule; also called HIS-tagged human α11β1; integrin alpha 11 beta 1
Method: (§1) The affinity of antibodies for human α11β1 was measured by surface plasmon resonance assay (SPR). Affinity was measured at pH 7.6 and 25° C. with a Biacore T200 instrument. Anti-HIS antibody was immobilized on the SPR sensor surface using EDC/NHS covalent attachment. HIS-tagged human α11β1 was captured on the sensor surface and a single-cycle kinetics assay was used. Increasing concentrations of test antibody were injected in series over the sensor-bound α11β1. Dissociation was monitored for 1000 seconds. A sensor surface with only anti-HIS antibody and a series of blank injections were used to double-reference subtract the data. A 1:1 Langmuir model was fit to the data to estimate the kinetic association and dissociation constants. The affinity (equilibrium dissociation constant) of the interaction was calculated by dividing the kinetic dissociation constant by the kinetic association constant. Between injection cycles α11β1 and bound antibody were removed with an injection of 10 mM glycine at pH 1.5.

[3] = biological target: T4, recombinant mouse α11β1 (mouse, UniProt P61622 23-1141; P09055 21-728, limits assumed); experiment: ELISA on recombinant mouse α11β1
T4 construct: also called murine α11β1
Method: 0.25 μg/mL of target antigen (recombinant human or mouse α11β1) was plated in a 96-well plate over night at 4° C. Plates were washed (PBS with 0.1% Tween-20), blocked (PBS with 2% BSA and 0.05% Tween-20) for 1 hour at room temperature and incubated with a range of antibody concentrations for 1 hour at room temperature. Subsequently, plates were washed and incubated with biotinylated anti-rabbit/mouse/human IgG in a 1:1000 dilution buffer and incubated for 1 hour at room temperature. After washing the plates, Streptavidin HRP was added at 1:200 in dilution buffer and incubated for 1 hour at room temperature. Ultra TMB ELISA substrate solution was added and the plates incubated for 5 minutes on a plate shaker. The reaction was stopped by adding stop solution to each well and plates were read at 450 nm.

[4] = biological target: T3, recombinant human α11β1; experiment: SPR, HIS-tagged human α11β1 captured by anti-HIS, antibody as analyte, single-cycle kinetics
Method: as §1
The binding affinity of antibodies for the α11β1 Headpiece and α11β1 I Domain as measured by SPR is shown in FIG. 10A and FIG. 10B, respectively.

[5] = biological target: T5, human α11β1 expressed on the surface of CHO-K1 cells (human, UniProt Q9UKX5 23-1188); experiment: cell-based or functional assay
[6] = biological target: T5, human α11β1 expressed on the surface of …; experiment: FACS titration on Human CHO-α11 cells
Method: 200,000 cells (wild-type CHO-K1 cells or CHO-K1 cells expressing human α11) were incubated with each antibody at desired concentrations in FACS buffer for 30 min at 4° C. Then, the cells were washed with FACS buffer and incubated with secondary antibody at 1:100 dilution for 30 minutes at 4° C. Cells were then washed and fixed with 1% PFA in PBS for 20 minutes at room temperature; washed again and read on a cytometer in FACS buffer.

[7] = biological target: T1, in-house generated I domain of α11β1; experiment: SPR, single-cycle injections of 33, 100 and 300 nM over the a11b1 I Domain
[8] = biological target: T5, human α11β1 expressed on the surface of …; experiment: cell-based or functional assay; remark: listed apart in the source
[9] = biological target: Mouse CHO-α11 (mouse, UniProt P61622); experiment: FACS titration on Mouse CHO-α11 cells
Chain of Mouse CHO-α11 (P61622 23-1188): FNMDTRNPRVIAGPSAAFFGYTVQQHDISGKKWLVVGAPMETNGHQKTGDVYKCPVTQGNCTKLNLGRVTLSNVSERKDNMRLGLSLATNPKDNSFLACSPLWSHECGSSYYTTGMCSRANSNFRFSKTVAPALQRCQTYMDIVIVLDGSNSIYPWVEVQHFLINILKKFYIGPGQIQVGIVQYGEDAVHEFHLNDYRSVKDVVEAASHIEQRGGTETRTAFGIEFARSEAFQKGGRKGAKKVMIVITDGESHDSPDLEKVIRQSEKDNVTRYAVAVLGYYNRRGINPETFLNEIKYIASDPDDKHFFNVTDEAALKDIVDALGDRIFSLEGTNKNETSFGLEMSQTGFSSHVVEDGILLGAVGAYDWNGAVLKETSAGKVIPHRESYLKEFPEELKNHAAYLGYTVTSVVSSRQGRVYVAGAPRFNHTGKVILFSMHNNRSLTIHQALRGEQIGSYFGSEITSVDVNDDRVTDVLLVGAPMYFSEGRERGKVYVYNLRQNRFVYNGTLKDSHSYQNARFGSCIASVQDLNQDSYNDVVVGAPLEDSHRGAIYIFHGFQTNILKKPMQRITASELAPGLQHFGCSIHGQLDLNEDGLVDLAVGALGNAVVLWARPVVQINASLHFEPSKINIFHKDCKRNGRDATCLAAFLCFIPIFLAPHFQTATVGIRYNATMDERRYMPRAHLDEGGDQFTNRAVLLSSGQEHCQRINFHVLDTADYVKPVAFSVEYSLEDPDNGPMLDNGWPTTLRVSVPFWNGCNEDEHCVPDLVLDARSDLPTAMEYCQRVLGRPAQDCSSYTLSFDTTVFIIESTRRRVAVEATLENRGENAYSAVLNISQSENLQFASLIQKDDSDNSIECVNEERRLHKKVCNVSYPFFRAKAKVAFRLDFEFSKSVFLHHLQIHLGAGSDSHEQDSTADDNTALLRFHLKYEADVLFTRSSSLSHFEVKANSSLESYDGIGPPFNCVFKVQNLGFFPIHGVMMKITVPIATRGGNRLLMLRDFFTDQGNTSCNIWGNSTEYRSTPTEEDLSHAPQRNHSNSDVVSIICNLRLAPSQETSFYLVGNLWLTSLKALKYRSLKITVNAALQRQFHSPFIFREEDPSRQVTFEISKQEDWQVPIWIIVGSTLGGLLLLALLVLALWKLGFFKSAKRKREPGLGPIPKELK

T2 sequence (Q9UKX5 23-1188, chain 1 of 2): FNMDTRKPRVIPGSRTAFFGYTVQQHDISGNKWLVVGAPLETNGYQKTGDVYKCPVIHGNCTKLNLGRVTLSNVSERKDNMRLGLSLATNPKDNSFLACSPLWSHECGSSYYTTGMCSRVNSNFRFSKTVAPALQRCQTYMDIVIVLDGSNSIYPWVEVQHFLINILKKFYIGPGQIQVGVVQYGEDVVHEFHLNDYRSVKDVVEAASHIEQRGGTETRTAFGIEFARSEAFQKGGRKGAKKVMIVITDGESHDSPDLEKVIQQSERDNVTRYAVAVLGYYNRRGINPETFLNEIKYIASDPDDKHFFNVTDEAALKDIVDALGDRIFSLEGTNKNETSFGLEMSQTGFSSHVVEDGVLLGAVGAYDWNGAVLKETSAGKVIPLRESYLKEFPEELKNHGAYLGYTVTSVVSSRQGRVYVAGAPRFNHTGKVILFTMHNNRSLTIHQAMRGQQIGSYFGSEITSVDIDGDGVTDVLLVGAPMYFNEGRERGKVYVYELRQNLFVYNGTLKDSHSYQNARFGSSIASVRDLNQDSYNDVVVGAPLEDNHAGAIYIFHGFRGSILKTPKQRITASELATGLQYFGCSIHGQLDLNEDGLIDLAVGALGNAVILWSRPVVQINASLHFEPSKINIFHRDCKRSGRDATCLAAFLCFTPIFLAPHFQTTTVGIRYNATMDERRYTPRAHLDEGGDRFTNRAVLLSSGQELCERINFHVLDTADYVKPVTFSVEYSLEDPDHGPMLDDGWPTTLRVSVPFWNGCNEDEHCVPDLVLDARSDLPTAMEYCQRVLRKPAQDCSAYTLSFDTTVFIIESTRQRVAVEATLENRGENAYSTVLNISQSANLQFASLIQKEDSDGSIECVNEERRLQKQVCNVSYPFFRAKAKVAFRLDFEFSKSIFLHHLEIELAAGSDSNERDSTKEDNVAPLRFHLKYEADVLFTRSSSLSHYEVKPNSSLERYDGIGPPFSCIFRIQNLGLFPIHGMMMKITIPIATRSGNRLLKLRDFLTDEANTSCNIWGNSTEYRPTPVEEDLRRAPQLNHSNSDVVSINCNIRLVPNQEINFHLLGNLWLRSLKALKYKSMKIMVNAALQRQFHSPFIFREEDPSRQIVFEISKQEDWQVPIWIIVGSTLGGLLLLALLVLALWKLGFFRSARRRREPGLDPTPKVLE
T2 sequence (P05556 21-798, chain 2 of 2): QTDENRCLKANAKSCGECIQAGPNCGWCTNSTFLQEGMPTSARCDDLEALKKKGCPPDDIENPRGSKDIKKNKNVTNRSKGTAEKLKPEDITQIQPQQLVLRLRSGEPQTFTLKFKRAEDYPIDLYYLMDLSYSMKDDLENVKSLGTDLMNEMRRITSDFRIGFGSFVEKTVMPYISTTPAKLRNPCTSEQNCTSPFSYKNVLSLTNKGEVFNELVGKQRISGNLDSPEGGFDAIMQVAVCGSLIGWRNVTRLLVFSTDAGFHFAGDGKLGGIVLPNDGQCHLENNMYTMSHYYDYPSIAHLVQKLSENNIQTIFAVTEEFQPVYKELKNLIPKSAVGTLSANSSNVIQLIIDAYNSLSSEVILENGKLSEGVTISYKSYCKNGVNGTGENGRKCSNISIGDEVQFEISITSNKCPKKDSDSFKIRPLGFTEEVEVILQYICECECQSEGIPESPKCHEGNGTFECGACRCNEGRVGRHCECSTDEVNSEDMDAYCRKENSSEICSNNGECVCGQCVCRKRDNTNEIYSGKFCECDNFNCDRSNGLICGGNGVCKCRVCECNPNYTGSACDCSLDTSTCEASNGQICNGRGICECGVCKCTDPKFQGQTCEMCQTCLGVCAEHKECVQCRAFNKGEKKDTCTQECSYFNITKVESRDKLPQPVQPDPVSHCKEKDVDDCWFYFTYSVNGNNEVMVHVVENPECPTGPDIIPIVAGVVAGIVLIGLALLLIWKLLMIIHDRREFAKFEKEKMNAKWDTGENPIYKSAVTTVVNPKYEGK
T5 sequence (Q9UKX5 23-1188): as the sequence (Q9UKX5 23-1188, chain 1 of 2) above
T3 sequence (Q9UKX5 23-1141 limits assumed, chain 1 of 2): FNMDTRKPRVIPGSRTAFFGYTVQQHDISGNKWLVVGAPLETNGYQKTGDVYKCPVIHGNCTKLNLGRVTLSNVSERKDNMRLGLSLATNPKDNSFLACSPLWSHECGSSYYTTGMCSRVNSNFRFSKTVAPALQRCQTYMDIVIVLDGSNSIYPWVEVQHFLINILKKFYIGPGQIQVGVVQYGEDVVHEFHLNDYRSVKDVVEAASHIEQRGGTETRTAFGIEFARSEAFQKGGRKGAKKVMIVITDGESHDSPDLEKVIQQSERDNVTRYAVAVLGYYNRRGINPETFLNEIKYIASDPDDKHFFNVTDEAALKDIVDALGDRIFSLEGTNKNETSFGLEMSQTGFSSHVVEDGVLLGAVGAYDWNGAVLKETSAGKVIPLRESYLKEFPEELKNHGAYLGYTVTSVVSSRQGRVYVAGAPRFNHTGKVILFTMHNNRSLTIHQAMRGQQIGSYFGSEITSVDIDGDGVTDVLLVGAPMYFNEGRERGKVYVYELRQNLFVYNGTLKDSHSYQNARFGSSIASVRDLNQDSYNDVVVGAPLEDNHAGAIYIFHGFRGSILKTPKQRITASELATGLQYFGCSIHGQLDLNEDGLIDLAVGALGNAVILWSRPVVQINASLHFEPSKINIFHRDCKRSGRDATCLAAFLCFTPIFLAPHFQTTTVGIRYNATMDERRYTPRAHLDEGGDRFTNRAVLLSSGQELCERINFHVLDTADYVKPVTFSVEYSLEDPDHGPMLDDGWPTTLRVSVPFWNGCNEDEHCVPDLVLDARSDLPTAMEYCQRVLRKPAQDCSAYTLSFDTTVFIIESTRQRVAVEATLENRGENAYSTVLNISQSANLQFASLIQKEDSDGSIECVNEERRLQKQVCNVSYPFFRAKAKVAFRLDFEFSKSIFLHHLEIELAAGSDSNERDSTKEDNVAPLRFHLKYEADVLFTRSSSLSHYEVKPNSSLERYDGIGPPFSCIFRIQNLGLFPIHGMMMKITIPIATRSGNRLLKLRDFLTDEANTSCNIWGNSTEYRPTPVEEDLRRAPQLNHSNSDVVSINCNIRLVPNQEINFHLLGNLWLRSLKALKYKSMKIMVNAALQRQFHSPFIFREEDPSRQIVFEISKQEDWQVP
T3 sequence (P05556 21-728 limits assumed, chain 2 of 2): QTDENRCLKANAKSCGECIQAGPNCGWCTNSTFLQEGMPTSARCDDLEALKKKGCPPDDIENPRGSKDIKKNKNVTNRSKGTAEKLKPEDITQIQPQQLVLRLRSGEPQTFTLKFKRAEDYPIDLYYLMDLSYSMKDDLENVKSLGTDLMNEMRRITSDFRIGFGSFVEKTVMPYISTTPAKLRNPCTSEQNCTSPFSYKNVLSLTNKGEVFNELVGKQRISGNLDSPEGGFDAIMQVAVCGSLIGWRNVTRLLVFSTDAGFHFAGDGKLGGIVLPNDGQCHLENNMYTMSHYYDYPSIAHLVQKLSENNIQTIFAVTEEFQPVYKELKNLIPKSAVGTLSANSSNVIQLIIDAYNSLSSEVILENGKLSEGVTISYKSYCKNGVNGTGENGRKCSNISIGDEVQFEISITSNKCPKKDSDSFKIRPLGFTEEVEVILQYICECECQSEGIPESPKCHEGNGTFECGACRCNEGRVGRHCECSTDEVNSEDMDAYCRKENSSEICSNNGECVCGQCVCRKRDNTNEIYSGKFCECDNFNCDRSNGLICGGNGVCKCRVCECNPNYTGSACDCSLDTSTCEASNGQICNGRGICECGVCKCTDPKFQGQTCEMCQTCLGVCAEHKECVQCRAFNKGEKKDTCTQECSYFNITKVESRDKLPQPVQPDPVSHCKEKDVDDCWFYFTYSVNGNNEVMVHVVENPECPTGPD

| EC50 [1] | koff [2] | binding result [3] | Kd [4] | IC50, inhibition of adhesion of CHO-α11 cells to rat tail type I collagen [5] | EC50 [6] | binding result [7] | kon [2] | IC50 of blocking cell adhesion to type I collagen [8] | EC50 [9] | Binder |
| --- | --- | --- | --- | --- | --- | --- | --- | --- | --- | --- |
| 0.051 µg/mL and 0.3 nM | 0.000234 s⁻¹ | no binding | 0.048 nM | 0.39 nM | 0.35 nM | no binding (tested: 300 nM) |  |  |  | A11B1_16E10 (antibody, V domains shown, recombinant rabbit IgG, full chains) VH: QSLEESGGDLVKPGASLTLTCRVSGFSFSSSYYMCWVRQAPGKGLEWIACIGTTRGSTYYATWAKGRFTISKISSTTVTLQMTSLTDADTATYFCARDATGYRINTIGLYFNLWGPGTLVTVSS VL: AFELTQTPSSVEAAVGGTPTIKCQASQTIYSYLSWYQQKPGQPPKLLIYEASKLASGVPSRFSGSGSGTDYTLTISDLECADAATYYCQSYHGTASTEYNTFGGGTEVVVRG |
| 0.5 µg/mL and 3.35 nM | 0.000108 s⁻¹ | binds | 0.01 nM |  | 7.3 nM |  | 1.07e+07 M⁻¹ s⁻¹ | 9.4 nM | 3.5 nM | 79E3E3 (antibody, V domains shown, rat hybridoma mAb) VH: QIQLVQSGPEVKKPGESVKISCKASGYTFTDYAMNWVKQAPGNGLKWMGWINTQTGKPTYADDFKQRFVFSLETSARTTYLQINNLNIEDTATYFCTRLGTGNTKGFAYWGQGTLVTVSS VL: DILINQSPASLTVSAGERVTMSCKSSQSLLYSENNQDYLAWYQQKPGQFPKLLIYGASNRHTGVPDRFTGSGSGTDFTLTISSVQAEDLADYYCEQTYRYPFTFGSGTKLEIK |
